Reference: US20040151724A1 (published 2004)

Target: T1, MUC1 (UniProt P15941 24-1255, limits assumed)
T1 construct: whole, on cells; also called B16MUC1; C57MUC1
Assay: flow cytometry of Fab on C57MUC1 cells (murine + MUC1)

T1 sequence (P15941 24-1255 limits assumed): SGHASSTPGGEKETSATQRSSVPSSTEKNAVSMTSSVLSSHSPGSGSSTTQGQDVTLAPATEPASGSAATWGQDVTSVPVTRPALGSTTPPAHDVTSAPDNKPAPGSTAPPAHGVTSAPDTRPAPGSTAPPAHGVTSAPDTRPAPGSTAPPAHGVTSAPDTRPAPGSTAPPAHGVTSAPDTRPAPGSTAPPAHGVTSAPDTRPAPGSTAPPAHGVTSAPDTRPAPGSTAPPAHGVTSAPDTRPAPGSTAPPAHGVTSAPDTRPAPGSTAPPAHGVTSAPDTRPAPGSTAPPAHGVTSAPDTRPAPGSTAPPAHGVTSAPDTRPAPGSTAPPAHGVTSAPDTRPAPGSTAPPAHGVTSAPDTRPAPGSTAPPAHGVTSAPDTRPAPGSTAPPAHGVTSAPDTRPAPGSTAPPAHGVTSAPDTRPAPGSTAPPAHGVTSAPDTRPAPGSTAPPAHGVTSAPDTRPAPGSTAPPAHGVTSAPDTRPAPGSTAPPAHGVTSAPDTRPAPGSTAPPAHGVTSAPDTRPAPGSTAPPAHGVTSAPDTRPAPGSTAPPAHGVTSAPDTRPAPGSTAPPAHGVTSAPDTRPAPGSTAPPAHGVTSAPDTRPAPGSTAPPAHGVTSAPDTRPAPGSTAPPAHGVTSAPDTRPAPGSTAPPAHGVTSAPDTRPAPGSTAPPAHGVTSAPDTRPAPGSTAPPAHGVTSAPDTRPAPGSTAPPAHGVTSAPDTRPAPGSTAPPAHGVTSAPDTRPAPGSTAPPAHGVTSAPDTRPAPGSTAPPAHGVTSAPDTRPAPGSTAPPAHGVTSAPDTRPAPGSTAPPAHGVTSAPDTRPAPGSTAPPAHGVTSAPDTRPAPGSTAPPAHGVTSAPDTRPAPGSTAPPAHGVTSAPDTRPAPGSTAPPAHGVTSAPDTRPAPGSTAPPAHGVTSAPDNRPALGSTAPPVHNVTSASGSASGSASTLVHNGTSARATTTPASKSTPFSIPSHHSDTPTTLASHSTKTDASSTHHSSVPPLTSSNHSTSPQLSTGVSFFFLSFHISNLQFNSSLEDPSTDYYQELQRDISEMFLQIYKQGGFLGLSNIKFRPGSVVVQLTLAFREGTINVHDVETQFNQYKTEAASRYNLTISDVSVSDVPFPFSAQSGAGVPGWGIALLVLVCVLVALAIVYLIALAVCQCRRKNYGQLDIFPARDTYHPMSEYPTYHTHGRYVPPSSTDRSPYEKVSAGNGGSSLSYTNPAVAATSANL

B1: Fab 14.6.20 (Fab, V domains shown)
VH: EVQLVQSGGGLVQPGGSLRLSCTASGFIFNNYAMSWVRQAPGKGLEWVSGISTGGSSTYHADSVKGRFTISRDNFKKTLWLQMNSLTPEDAAVYYCARHANFWNGYLEKGAIDYWGQGTLVTVSS
VL: ELQMTQSPSTLSASVGDRVTITCRASHSVSGWLAWYQQKPGKAPKLLSYEPSSLESGVPSRFSGSGSGTEFTLTISSLQPEDFATYYCQESYRITSLTFGGGTKVETRR
notes: also called Fab clone 14.6.20
Question: Does B1 bind?
Answer: no binding
